Target: CD8 co-receptors on CD8+ T cells (OT-1 mouse splenocytes) (mouse) (UniProt P01731)
Test: flow cytometry, noncognate APNs on OT-1 CD8+ splenocytes, in vitro

UniProt P01731, sequence (P01731 28-247, chain 1 of 2): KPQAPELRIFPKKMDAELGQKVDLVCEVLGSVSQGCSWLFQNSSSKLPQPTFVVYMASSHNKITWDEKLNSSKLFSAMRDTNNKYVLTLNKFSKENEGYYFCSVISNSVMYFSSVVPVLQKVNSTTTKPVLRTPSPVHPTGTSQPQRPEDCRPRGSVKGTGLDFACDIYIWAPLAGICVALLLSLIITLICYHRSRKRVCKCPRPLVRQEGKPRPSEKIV
UniProt P01731, sequence (P10300 22-213, chain 2 of 2, further chain): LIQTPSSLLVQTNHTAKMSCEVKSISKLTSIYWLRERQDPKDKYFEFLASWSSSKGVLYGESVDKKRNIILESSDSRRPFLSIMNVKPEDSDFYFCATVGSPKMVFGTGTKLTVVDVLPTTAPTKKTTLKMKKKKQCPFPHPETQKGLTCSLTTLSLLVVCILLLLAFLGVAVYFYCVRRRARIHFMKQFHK

“NS2/K^b antigen-presenting nanoparticle (APN): NS2 peptide RTFSFQLI on H2-K^b on an mRNA lipid nanoparticle (peptide-MHC)” showed a percent cross-reactivity of 10%.

Source: patent US20240382606A1
